Columns and labels:
[1] = system: soluble Ptk7 (sPtk7) shed by MEFs; experiment: Western blot for sPtk7 in conditioned media; type: cell-based, mouse
Protocol: Twenty-four hours before collecting conditioned media (CM), MEFs were washed with serum-free DMEM twice, and serum-free DMEM was added. After 24 h in serum-free DMEM, this CM was collected, filtered using Steriflip filters (Millipore, #SE1M179M6) to remove cell debris, and concentrated using centrifugal filter units (Amicon ultra-15 centricon; Millipore, # UFC900324). To collect CM without sPtk7, TAPI-1 (Millipore, #59053) or GM6001 (Sigma-Aldrich, #364206) containing serum-free DMEM instead of serum-free DMEM was added to the cells. To inhibit Wnt secretion, IWP-L6 (Sigma-Aldrich, #504819) containing serum-free DMEM instead of serum-free DMEM was added to the cells. CM was filtered and dialyzed for 24–48 h to remove the inhibitors before concentration. Concentrated CM from equal numbers of MEFs was mixed with IntestiCult Organoid Growth Medium (Stem Cell Technologies, #06005) and added to the organoid cultures.
Conditioned media corresponding to the same number of cells were loaded for SDS–PAGE. Total cell and tissue lysates of mouse fibroblasts and intestine were prepared using RIPA lysis buffer (Thermo Fisher Scientific, #89900) with protease/phosphatase inhibitor (Thermo Fisher Scientific, #1861281). Protein concentration was measured with BCA protein assay kit (Thermo Fisher Scientific, #23227), and equal amount of proteins were loaded for SDS–PAGE. […]

MEFs = experiment: SA-β-Gal staining; type: cell-based, mouse; settings: X-ray irradiation or doxorubicin (250 nM, 3 days)
Protocol: Staining was performed with the Senescence Detection Kit (Abcam, #ab65351) following the manufacturer’s protocol. Briefly, MEFs were fixed for 15 min with 1× fixation solution, washed with PBS, then stained overnight at 37 °C in 1× staining solution. Brightfield images were captured on the Zeiss Axio Imager M2 microscope.

[2] = system: cytosolic Ca2+ in mouse intestinal organoids; experiment: live Ca2+ imaging of mouse intestinal organoids (GCaMP6f/tdTomato: baselined area under curve, peak number, height, width); type: cell-based; settings: live organoids expressing GCaMP6f
Protocol: Z stacks were acquired every 10 s.
Z-stack images were converted to mean intensity projections and, where required; background was subtracted using a rolling ball algorithm. Segmentation was conducted on a max-projection over-time of the GCaMP6f channel using Cellpose’s pre-trained “Cytoplasm” classifier. Mean intensity traces were measured in each ROI over the time course in both the GCaMP6f and TdTomato channels using scikit-image[138]. Ca^2+ oscillation patterns were calculated in an unsupervised, automated manner using MATLAB. Mean intensity traces were smoothed using a Savitzky-Golay filter and peaks were identified using the “findpeaks” algorithm from the MATLAB Signal Processing Toolbox. Graphs for GCaMP6f/tdTomato fluorescence ratio, peak numbers, peak height, peak width and baselined area under the curve were generated using Python matplotlib and seaborn packages. Statistical analysis was performed using Python SciPy and scikit-post-hoc packages.

biotinylated Wnt5a = experiment: ELISA binding to Wnt5a; set-up: species or system human/mouse (hmWnt5a); settings: Wnt5a versus Wnt3a
Protocol: (§1) Proteins used in ELISAs were obtained from R&D Systems: PTK7-Fc (R&D Systems, #9799-TK), biotinylated Wnt3a (R&D Systems, #BT1324), biotinylated Wnt5a (R&D Systems, #BT645). […] Assay plates (384 Maxisorp plates, Nunc, # 464718) were prepared by incubation overnight with 30 µl/well Neutravidin (2 µg/ml, Thermo Fisher Scientific, #31055) in PBS at 4 °C. Plates were emptied and incubated with 100 µl/well of blocking buffer (PBS, 2% bovine serum albumin, 0.01% NaN3) for 1 h at room temperature with shaking. Blocking buffer was aspirated and plates were washed 8x with 70 µl/well of PBS-T. In parallel, bio-Wnt3a or bio-Wnt5a were incubated in helper plates (384 well plates, Nunc; #264574) with a dilution series of PTK7-Fc or FZD7-His in the presence or absence of FZD7-His as a competitor in assay diluent (PBS + 0.5 % BSA + 15 ppm ProClin 300 (Sigma-Aldrich, #48914-U) for 1 h at 4 °C. Protein mixtures (25 µl/well) were transferred from helper plates to 3 wells of assay plates (technical triplicates), and incubated for 1 h at 4 °C. Assay plates were aspirated and washed 8× with 70 µl/well of PBS-T. Binding was detected by 25 µl/well of anti-hIgG1-Fc-HRP (0.2 µg/ml, Thermo Fisher Scientific, #A-10648) or anti-His-tag-HRP (0.2 µg/ml, Abcam, #ab1187) in assay diluent, incubated for 1 h at 4 °C. […] Absorbance at 450 nm was recorded with a plate reader. […]

biotinylated Wnt3a = experiment: ELISA binding to Wnt3a; set-up: species or system mouse; settings: PTK7 with FZD7 CRD
Protocol: as §1

Row | binding to Wnt3a and Wnt5a, relative affinity (biotinylated Wnt5a) | Molecule | levels of sPtk7 in conditioned media [1] | senescence (SA-β-gal) (MEFs) | effect on cytosolic Ca2+ levels and oscillations [2] | competition for binding to Wnt3a or Wnt5a (biotinylated Wnt3a)
1 | – | COc1cccc2c1C(=O)c1c(O)c3c(c(O)c1C2=O)C[C@@](O)(C(=O)CO)C[C@@H]3O[C@H]1C[C@H](N)[C@H](O)[C@H](C)O1 [doxorubicin] | contained higher levels of sPtk7 | confirmed senescence | – | –
2 | bound Wnt5a with higher affinity | sPtk7: soluble/shed N-terminal extracellular domain of Ptk7 (protein, left off: Fc (human IgG1, from the anti-hIgG1-Fc detection antibody), end not stated, kept, soluble/shed N-terminal extracellular domain of Ptk7) AIVFIKQPSSQDALQGRRALLRCEVEAPGPVHVYWLLDGAPVQDTERRFAQGSSLSFAAVDRLQDSGTFQCVARDDVTGEEARSANASFNIKWIEAGPVVLKHPASEAEIQPQTQVTLRCHIDGHPRPTYQWFRDGTPLSDGQSNHTVSSKERNLTLRPAGPEHSGLYSCCAHSAFGQACSSQNFTLSIADESFARVVLAPQDVVVARYEEAMFHCQFSAQPPPSLQWLFEDETPITNRSRPPHLRRATVFANGSLLLTQVRPRNAGIYRCIGQGQRGPPIILEATLHLAEIEDMPLFEPRVFTAGSEERVTCLPPKGLPEPSVWWEHAGVRLPTHGRVYQKGHELVLANIAESDAGVYTCHAANLAGQRRQDVNITVATVPSWLKKPQDSQLEEGKPGYLDCLTQATPKPTVVWYRNQMLISEDSRFEVFKNGTLRINSVEVYDGTWYRCMSSTPAGSIEAQARVQVLEKLKFTPPPQPQQCMEFDKEATVPCSATGREKPTIKWERADGSSLPEWVTDNAGTLHFARVTRDDAGNYTCIASNGPQGQIRAHVQLTVAVFITFKVEPERTTVYQGHTALLQCEAQGDPKPLIQWKGKDRILDPTKLGPRMHIFQNGSLVIHDVAPEDSGRYTCIAGNSCNIKHTEAPLYVVDKPVPEESEGPGSPPPYKMIQT | – | – | modulate cytosolic Ca^2+ oscillations | unaffected by a saturating amount of FZD7 CRD
